# Assay results from patent US20240116997A1.
# Experiments:
# Assay in all cases: cell-based or functional assay
# [1] = molecular target: IL-18 polypeptide SEQ ID NO: 59 (E6K, C38A, K53A) (human) (UniProt Q14116)
# [2] = molecular target: C151 (V11I, D35A, C38A, K53A, C76A, C127A) (human) (UniProt Q14116)
# [3] = molecular target: C149 (V11I, E31A, C38A, K53A, C76A, C127A) (human) (UniProt Q14116)
# [4] = molecular target: IL-18 polypeptide SEQ ID NO: 5 (E6K, V11I, C38A, K53A, T63A, C68A, C76A, M86C, C127A) (human) (UniProt Q14116)
# [5] = molecular target: C156 (V11I, C38A, N41A, K53A, C76A, C127A) (human) (UniProt Q14116)
# [6] = molecular target: C167 (V11I, C38A, C76A, S105I, C127A) (human) (UniProt Q14116)
# [7] = molecular target: C153 (V11I, D37A, C38A, K53A, C76A, C127A) (human) (UniProt Q14116)
# [8] = molecular target: IL-18 polypeptide SEQ ID NO: 53 (K53A, T63A) (human) (UniProt Q14116)
# [9] = molecular target: C159 (V11I, C38A, K53A, C76A, H109A, C127A) (human) (UniProt Q14116)
# [10] = molecular target: IL-18 polypeptide SEQ ID NO: 36 (K53A) (human) (UniProt Q14116)
# [11] = molecular target: IL-18 polypeptide SEQ ID NO: 9 (E6K, C38A, K53A, C68A, D98C) (human) (UniProt Q14116)
# [12] = molecular target: C163 (V11I, C38A, C76A, Q103K, C127A) (human) (UniProt Q14116)
# [13] = molecular target: C147 (V11I, C38A, K53A, D54A, C76A, C127A) (human) (UniProt Q14116)
# [14] = molecular target: IL-18 polypeptide SEQ ID NO: 57 (E6K, C38S, K53A) (human) (UniProt Q14116)
# [15] = molecular target: C150 (V11I, T34A, C38A, K53A, C76A, C127A) (human) (UniProt Q14116)
# [16] = molecular target: C145 (V11I, C38A, K53A, S55A, C76A, C127A) (human) (UniProt Q14116)
# [17] = molecular target: IL-18 polypeptide SEQ ID NO: 35 (Y01G, F02A, E06K, M51G, K53A, D54A, S55A, T63A) (human) (UniProt Q14116)
# [18] = molecular target: IL-18 polypeptide SEQ ID NO: 4 (E6K, C38A, K53A, C68A, M86C) (human) (UniProt Q14116)
# [19] = molecular target: C155 (V11I, C38A, D40A, K53A, C76A, C127A) (human) (UniProt Q14116)
# [20] = molecular target: IL-18 polypeptide SEQ ID NO: 54 (E06K, K53A, C38S, C68S, C76S, C127S, K70C) (human) (UniProt Q14116)
# [21] = molecular target: IL-18 polypeptide SEQ ID NO: 51 (T63A) (human) (UniProt Q14116)
# Chain of IL-18 polypeptide SEQ ID NO: 51 (T63A) (human) (Q14116 37-193 T99A): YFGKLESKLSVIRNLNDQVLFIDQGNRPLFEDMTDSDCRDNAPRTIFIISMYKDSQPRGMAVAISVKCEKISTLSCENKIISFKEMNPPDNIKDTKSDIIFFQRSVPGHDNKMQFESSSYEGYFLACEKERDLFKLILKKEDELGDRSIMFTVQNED
# Chain of C150 (V11I, T34A, C38A, K53A, C76A, C127A) (human) (Q14116 37-193 V47I/T70A/C74A/K89A/C112A/C163A): as the sequence (Q14116 37-193 T99A) above, with V11I, T34A, C38A, K53A, A63T, C76A, C127A counted along it
# Chain of C156 (V11I, C38A, N41A, K53A, C76A, C127A) (human) (Q14116 37-193 V47I/C74A/N77A/K89A/C112A/C163A): as the sequence (Q14116 37-193 T99A) above, with V11I, C38A, N41A, K53A, A63T, C76A, C127A counted along it
# Chain of C167 (V11I, C38A, C76A, S105I, C127A) (human) (Q14116 37-193 V47I/C74A/C112A/S141I/C163A): as the sequence (Q14116 37-193 T99A) above, with V11I, C38A, A63T, C76A, S105I, C127A counted along it
# Chain of IL-18 polypeptide SEQ ID NO: 59 (E6K, C38A, K53A) (human) (Q14116 other isoform, or with tags, fused parts or gaps C38A K53A C38A K53A): as the sequence (Q14116 37-193 T99A) above, with E6K, C38A, K53A, A63T counted along it
# Chain of C151 (V11I, D35A, C38A, K53A, C76A, C127A) (human) (Q14116 37-193 V47I/D71A/C74A/K89A/C112A/C163A): as the sequence (Q14116 37-193 T99A) above, with V11I, D35A, C38A, K53A, A63T, C76A, C127A counted along it
# Chain of IL-18 polypeptide SEQ ID NO: 9 (E6K, C38A, K53A, C68A, D98C) (human) (Q14116 other isoform, or with tags, fused parts or gaps C38A K53A C68A D98C C38A K53A C68A D98C): as the sequence (Q14116 37-193 T99A) above, with E6K, C38A, K53A, A63T, C68A, D98C counted along it
# Chain of IL-18 polypeptide SEQ ID NO: 36 (K53A) (human) (Q14116 37-193 K89A): as the sequence (Q14116 37-193 T99A) above, with K53A, A63T counted along it
# Chain of C149 (V11I, E31A, C38A, K53A, C76A, C127A) (human) (Q14116 37-193 V47I/E67A/C74A/K89A/C112A/C163A): as the sequence (Q14116 37-193 T99A) above, with V11I, E31A, C38A, K53A, A63T, C76A, C127A counted along it
# Chain of C159 (V11I, C38A, K53A, C76A, H109A, C127A) (human) (Q14116 37-193 V47I/C74A/K89A/C112A/H145A/C163A): as the sequence (Q14116 37-193 T99A) above, with V11I, C38A, K53A, A63T, C76A, H109A, C127A counted along it
# Chain of C147 (V11I, C38A, K53A, D54A, C76A, C127A) (human) (Q14116 37-193 V47I/C74A/K89A/D90A/C112A/C163A): as the sequence (Q14116 37-193 T99A) above, with V11I, C38A, K53A, D54A, A63T, C76A, C127A counted along it
# Chain of C163 (V11I, C38A, C76A, Q103K, C127A) (human) (Q14116 37-193 V47I/C74A/C112A/Q139K/C163A): as the sequence (Q14116 37-193 T99A) above, with V11I, C38A, A63T, C76A, Q103K, C127A counted along it
# Chain of C155 (V11I, C38A, D40A, K53A, C76A, C127A) (human) (Q14116 37-193 V47I/C74A/D76A/K89A/C112A/C163A): as the sequence (Q14116 37-193 T99A) above, with V11I, C38A, D40A, K53A, A63T, C76A, C127A counted along it
# Chain of IL-18 polypeptide SEQ ID NO: 4 (E6K, C38A, K53A, C68A, M86C) (human) (Q14116 other isoform, or with tags, fused parts or gaps C38A K53A C68A M86C C38A K53A C68A M86C): as the sequence (Q14116 37-193 T99A) above, with E6K, C38A, K53A, A63T, C68A, M86C counted along it
# Chain of IL-18 polypeptide SEQ ID NO: 57 (E6K, C38S, K53A) (human) (Q14116 other isoform, or with tags, fused parts or gaps C38S K53A C38S K53A): as the sequence (Q14116 37-193 T99A) above, with E6K, C38S, K53A, A63T counted along it
# Chain of IL-18 polypeptide SEQ ID NO: 54 (E06K, K53A, C38S, C68S, C76S, C127S, K70C) (human) (Q14116 37-193 E42K/C74S/K89A/C104S/K106C/C112S/C163S): as the sequence (Q14116 37-193 T99A) above, with E6K, C38S, K53A, A63T, C68S, K70C, C76S, C127S counted along it
# Chain of C145 (V11I, C38A, K53A, S55A, C76A, C127A) (human) (Q14116 37-193 V47I/C74A/K89A/S91A/C112A/C163A): as the sequence (Q14116 37-193 T99A) above, with V11I, C38A, K53A, S55A, A63T, C76A, C127A counted along it
# Chain of IL-18 polypeptide SEQ ID NO: 5 (E6K, V11I, C38A, K53A, T63A, C68A, C76A, M86C, C127A) (human) (Q14116 other isoform, or with tags, fused parts or gaps with the stated changes): as the sequence (Q14116 37-193 T99A) above, with E6K, V11I, C38A, K53A, C68A, C76A, M86C, C127A counted along it
# Chain of IL-18 polypeptide SEQ ID NO: 35 (Y01G, F02A, E06K, M51G, K53A, D54A, S55A, T63A) (human) (Q14116 37-193 Y37G/F38A/E42K/M87G/K89A/D90A/S91A/T99A): as the sequence (Q14116 37-193 T99A) above, with Y1G, F2A, E6K, M51G, K53A, D54A, S55A counted along it
# Chain of C153 (V11I, D37A, C38A, K53A, C76A, C127A) (human) (Q14116 37-193 V47I/D73A/C74A/K89A/C112A/C163A): as the sequence (Q14116 37-193 T99A) above, with V11I, D37A, C38A, K53A, A63T, C76A, C127A counted along it
# Chain of IL-18 polypeptide SEQ ID NO: 53 (K53A, T63A) (human) (Q14116 37-193 K89A/T99A): as the sequence (Q14116 37-193 T99A) above, with K53A counted along it
substance,measurement,setting,value
Fc-fused human IL-18 binding protein isoform a (IL-18BPa) (from UniProt O95998 31-194) (Fc fusion),"IC50 (nM), IL-18BPa inhibition of IFNγ induction, NK-92 cells",[1],146 nM
same,"IC50 (nM), IL-18BPa inhibition of IFNγ induction, NK-92 cells",[2],7.85 nM
same,"IC50 (nM), IL-18BPa inhibition of IFNγ induction, NK-92 cells",[3],21.3 nM
same,"IC50 (nM), IL-18BPa inhibition of IFNγ induction, NK-92 cells",[4],62.4 nM
same,"IC50 (nM), IL-18BPa inhibition of IFNγ induction, NK-92 cells",[5],6.08 nM
same,"IC50 (nM), IL-18BPa inhibition of IFNγ induction, NK-92 cells",[6],0.176 nM
same,"IC50 (nM), IL-18BPa inhibition of IFNγ induction, NK-92 cells",[7],3.71 nM
same,"IC50 (nM), IL-18BPa inhibition of IFNγ induction, NK-92 cells",[8],18.2 nM
same,"IC50 (nM), IL-18BPa inhibition of IFNγ induction, NK-92 cells",[9],3.18 nM
same,"IC50 (nM), IL-18BPa inhibition of IFNγ induction, NK-92 cells",[10],27.3 nM
same,"IC50 (nM), IL-18BPa inhibition of IFNγ induction, NK-92 cells",[11],961 nM
same,"IC50 (nM), IL-18BPa inhibition of IFNγ induction, NK-92 cells",[12],0.456 nM
same,"IC50 (nM), IL-18BPa inhibition of IFNγ induction, NK-92 cells",[13],5.05 nM
same,"IC50 (nM), IL-18BPa inhibition of IFNγ induction, NK-92 cells",[14],1.62 nM
same,"IC50 (nM), IL-18BPa inhibition of IFNγ induction, NK-92 cells",[15],3.62 nM
same,"IC50 (nM), IL-18BPa inhibition of IFNγ induction, NK-92 cells",[16],733 nM
same,"IC50 (nM), IL-18BPa inhibition of IFNγ induction, NK-92 cells",[17],> 55 nM
same,"IC50 (nM), IL-18BPa inhibition of IFNγ induction, NK-92 cells",[18],396 nM
same,"IC50 (nM), IL-18BPa inhibition of IFNγ induction, NK-92 cells",[19],0.681 nM
same,"IC50 (nM), IL-18BPa inhibition of IFNγ induction, NK-92 cells",[20],23.5 nM
same,"IC50 (nM), IL-18BPa inhibition of IFNγ induction, NK-92 cells",[21],0.239 nM
